PMC4486934

Target: alpha-thrombin (biotinylated, thrombin-BFPRck) (human, UniProt P00734;P00734 328-363;364-622)
Test: BLI; 2 mM Ca2+; TBB: 20 mM HEPES pH 7.4, 150 mM NaCl, 2 mM CaCl2; room temperature (cell binding); BLI in TBB

B1: 5-12mini (structured_RNA)
RNA: GGGAGCUCAGAAUAAACGCUCAAGUUACUGAGCUCAGCAUGAGGCCCGGAUCCGGC
modifications: 2'-fluoro pyrimidines
  Kd: ~5 nM
